The source of these data is PMC11542179, “Unraveling the Bivalent and Rapid Interactions Between a Multivalent RNA Recognition Motif and RNA: A Kinetic Approach”.

Series [1] has as its target T1, MSI1 RRM2 (Homo sapiens, UniProt O43347 104-200). The series can be described thus: SPR; 1:1 with mass transport; SPR, 3'-biotinylated RNA immobilized on dextran sensor chip, protein as analyte; running buffer, salt, pH and temperature not in the material. Particulars: protein: recombinant, tags: C-terminal Strep-tag, label: 3'-biotin. (SPR reads the build-up and loss of mass on a sensor chip optically.)

For series [2], the target named is T2, MSI1 RRM1 (Homo sapiens, UniProt O43347 1-103). The series is described as above. Particulars: protein: recombinant, tags: N-terminal Strep-tag, label: 3'-biotin.
T2 sequence (O43347 1-103): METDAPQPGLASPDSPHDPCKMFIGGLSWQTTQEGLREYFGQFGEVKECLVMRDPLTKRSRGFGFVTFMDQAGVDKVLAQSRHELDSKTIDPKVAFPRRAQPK
Series [3] deals with T3, MSI1 RRM1-RRM2 tandem (Homo sapiens, UniProt O43347 1-200). Nature of the series: SPR; KD1, bivalent analyte model; SPR, 3'-biotinylated RNA immobilized on dextran sensor chip, protein as analyte; running buffer, salt, pH and temperature not in the material. As to conditions: protein: recombinant, label: 3'-biotin.
T3 sequence (O43347 1-200): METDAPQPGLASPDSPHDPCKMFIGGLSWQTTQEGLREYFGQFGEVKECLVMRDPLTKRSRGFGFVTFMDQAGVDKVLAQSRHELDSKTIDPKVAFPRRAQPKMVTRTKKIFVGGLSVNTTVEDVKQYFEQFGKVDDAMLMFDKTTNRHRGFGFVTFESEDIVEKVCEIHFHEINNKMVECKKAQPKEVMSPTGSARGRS
The target in series [4] is T3, MSI1 RRM1-RRM2 tandem. Nature of the series: SPR; KD1 monovalent step, new model; SPR, 3'-biotinylated RNA immobilized on dextran sensor chip, protein as analyte; running buffer, salt, pH and temperature not in the material. Particulars: protein: recombinant, label: 3'-biotin.
Series [5] concerns the target T1, MSI1 RRM2. Nature of the series: SPR; 1.9-500 nM; SPR, 3'-biotinylated RNA immobilized on dextran sensor chip, protein as analyte; running buffer, salt, pH and temperature not in the material. Particulars: protein: recombinant; tags: C-terminal Strep-tag; label: 3'-biotin.
The target of series [6] is T2, MSI1 RRM1. The description is as above. As to conditions: protein: recombinant; tags: N-terminal Strep-tag; label: 3'-biotin.
Series [7] concerns the target T3, MSI1 RRM1-RRM2 tandem. The series can be described thus: SPR; 7.8-250 nM; SPR, 3'-biotinylated RNA immobilized on dextran sensor chip, protein as analyte; running buffer, salt, pH and temperature not in the material. Particulars: protein: recombinant; label: 3'-biotin.
The target in series [8] is T3, MSI1 RRM1-RRM2 tandem. The series can be described thus: SPR; 1:1 model (poor fit); SPR, 3'-biotinylated RNA immobilized on dextran sensor chip, protein as analyte; running buffer, salt, pH and temperature not in the material. Particulars: protein: recombinant; label: 3'-biotin; linear, single UAG motif.
The target in series [9] is T3, MSI1 RRM1-RRM2 tandem. Nature of the series: SPR; KD1, induced fit model; SPR, 3'-biotinylated RNA immobilized on dextran sensor chip, protein as analyte; running buffer, salt, pH and temperature not in the material. As to conditions: protein: recombinant; label: 3'-biotin; linear, single UAG motif.
The target in series [10] is T3, MSI1 RRM1-RRM2 tandem. The series can be described thus: SPR; KD1 monovalent step, new rapid 2:1 model; SPR, 3'-biotinylated RNA immobilized on dextran sensor chip, protein as analyte; running buffer, salt, pH and temperature not in the material. Particulars: protein: recombinant; label: 3'-biotin; linear, single UAG motif.
Series [11] concerns the target T3, MSI1 RRM1-RRM2 tandem. The series can be described thus: SPR; KD1, bivalent analyte model (Table 3 prints 41); SPR, 3'-biotinylated RNA immobilized on dextran sensor chip, protein as analyte; running buffer, salt, pH and temperature not in the material. As to conditions: protein: recombinant; label: 3'-biotin; linear, single UAG motif.

T1 sequence (O43347 104-200): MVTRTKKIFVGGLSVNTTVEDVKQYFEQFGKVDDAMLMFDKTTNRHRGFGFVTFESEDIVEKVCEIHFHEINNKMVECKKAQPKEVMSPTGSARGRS

As for UUGUCAGUUACCCCUU (ssRNA) [RNA-L1a], the Kd was found to be 123 nM with MSI1 RRM2 [1] (linear), 151 nM in the series with MSI1 RRM1 [2] (linear), 1410 nM in the series with MSI1 RRM1-RRM2 tandem [3] (linear) and 1170 nM with MSI1 RRM1-RRM2 tandem [4] (linear).
In the case of CACUCUGUAGUAUGUAGGGUUUAUUU (structured_RNA) [RNA-HP2b], the Kd is 26 nM with MSI1 RRM2 [1] (potential hairpin), 33 nM with MSI1 RRM1 [2] (potential hairpin), 144 nM with MSI1 RRM1-RRM2 tandem [3] (potential hairpin) and 49 nM in the series with MSI1 RRM1-RRM2 tandem [4] (potential hairpin).
With CGGCGCCGC (ssRNA) [RNA C], the binding result with MSI1 RRM2 [5], with MSI1 RRM1 [6] and with MSI1 RRM1-RRM2 tandem [7] was “no binding” in each case.
Consider UUGUUAGUUACCCCUU (ssRNA) [RNA-L1], for which the Kd amounted to 2 nM with MSI1 RRM1-RRM2 tandem [8]; 24 nM in the series with MSI1 RRM1-RRM2 tandem [9]; 25 nM with MSI1 RRM2 [1] (linear, single UAG motif); 47 nM with MSI1 RRM1 [2] (linear, single UAG motif); 58 nM in the series with MSI1 RRM1-RRM2 tandem [10]; 42 nM with MSI1 RRM1-RRM2 tandem [11].
As for AAGCGUUAGUUAUUUAGUCGCUU (structured_RNA) [RNA-HP2a], the Kd in the series with MSI1 RRM2 [1] (potential hairpin) came out at 37 nM; in the series with MSI1 RRM1 [2] (potential hairpin) it was 22 nM; with MSI1 RRM1-RRM2 tandem [3] (potential hairpin), 45 nM; with MSI1 RRM1-RRM2 tandem [4] (potential hairpin) it was 77 nM.
